Reference: publication PMC7484307 (Archives of biochemistry and biophysics, 2020)

Molecular target: the molecule itself
Assay: AUC

B1: His-tagged ALDH9A1 (aldehyde dehydrogenase 9A1) (enzyme, human, UniProt P49189 1-494, looked up)
chain: MSTGTFVVSQPLNYRGGARVEPADASGTEKAFEPATGRVIATFTCSGEKEVNLAVQNAKAAFKIWSQKSGMERCRILLEAARIIREREDEIATMECINNGKSIFEARLDIDISWQCLEYYAGLAASMAGEHIQLPGGSFGYTRREPLGVCVGIGAWNYPFQIASWKSAPALACGNAMVFKPSPFTPVSALLLAEIYSEAGVPPGLFNVVQGGAATGQFLCQHPDVAKVSFTGSVPTGMKIMEMSAKGIKPVTLELGGKSPLIIFSDCDMNNAVKGALMANFLTQGQVCCNGTRVFVQKEILDKFTEEVVKQTQRIKIGDPLLEDTRMGPLINRPHLERVLGFVKVAKEQGAKVLCGGDIYVPEDPKLKDGYYMRPCVLTNCRDDMTCVKEEIFGPVMSILSFDTEAEVLERANDTTFGLAAGVFTRDIQRAHRVVAELQAGTCFINNYNVSPVELPFGGYKKSGFGRENGRVTIEYYSQLKTVCVEMGDVESAF
  stoichiometry N: 4
